Data on two proteins can be found in PMC2962900, “Kinetics of Methylation by EcoP1I DNA Methyltransferase” (Enzyme Research, 2010).

Substrate in the series “purified protein”: C[S+](CC[C@H](N)C(=O)O)C[C@H]1O[C@@H](n2cnc3c(N)ncnc32)[C@H](O)[C@@H]1O
In words: purified protein. As to conditions: Mg2+; DNA 1 μM (which DNA not stated); enzyme 400 nM; AdoMet 50 nM-2 μM; 30 min; labelled compound.

Series [1] deals with the molecule itself. Briefly: SEC; Superose 6 HR 10/30, buffer B (10 mM Tris-HCl pH 7.4, 100 mM NaCl, 0.1 mM EDTA, 10% glycerol, 7 mM beta-mercaptoethanol), 0.2 mL/min; 3-15 uM M.EcoP1I loaded; column calibrated with marker proteins. Background: SEC sorts molecules by how far they enter the pores of the column.

B1: EcoP1I DNA methyltransferase (M.EcoP1I) (Escherichia phage P1) (protein)
chain: MKKETIFSEVETANSKQLAVLKANFPQCFDKNGAFIQEKLLEIIRASEVELSKESYSLNWLGKSYARLLANLPPKTLLAEDKTHNQQEENKNSQNLLIKGDNLEVLKHMVNAYAEKVNMIYIDPPYNTGKDGFVYNDDRKFTPEQLSELAGIELDEANRILEFTTKGSSSHSAWLTFIYPRLYIARELLKEDGVIFISIDDNEDKQLGLLCDEVFGQGNFVAKLPTIMNLKGNHDNFGFSDTHEYIYVYAKNKDVCSLGQFDIDESEVEKEWDEDEYGLFKRADTLKRTGQDASRKSRPKGWFPVFINSENKVYVTDDDKPLNEDDYVLYPVSPTGEELSWSWGKKKINDEFYNLIVIDIKDGKNIYKKQRPALGELPTKKPKSIWYKPEYSTSTATTELKNLLGAKLFEGPKPVPLITDLVKIGTKKDSLVLDFFAGSGTTAEAVAYLNEKDSGCRNFICIQKDEVINKTKNAYSLGYRSIFEITKKRIQEVFKKSTTTSDNAAKIGFKVIHTIDDFRAKVESELTLTNHTFFDDAVLTPEQYDALLTTWCVYDGSLLTTPIEDVDLSGYTAHFCNGRLYLIAPNFTSEALKALLQKLDSDEDFAPNKVVFYGCNFESAKQRELNEALKSYANKKSIELDLVVRN
The Km is the substrate concentration at which the rate is half of its maximum. Consider B1, for which the Km in the series “purified protein” was 0.5 µM.

B2: EcoP1I DNA methyltransferase (M.EcoP1I) (enzyme, bacteriophage P1, UniProt P08763 1-646, looked up)
chain: MKKETIFSEVETANSKQLAVLKANFPQCFDKNGAFIQEKLLEIIRASEVELSKESYSLNWLGKSYARLLANLPPKTLLAEDKTHNQQEENKNSQNLLIKGDNLEVLKHMVNAYAEKVNMIYIDPPYNTGKDGFVYNDDRKFTPEQLSELAGIELDEANRILEFTTKGSSSHSAWLTFIYPRLYIARELLKEDGVIFISIDDNEDKQLGLLCDEVFGQGNFVAKLPTIMNLKGNHDNFGFSDTHEYIYVYAKNKDVCSLGQFDIDESEVEKEWDEDEYGLFKRADTLKRTGQDASRKSRPKGWFPVFINSENKVYVTDDDKPLNEDDYVLYPVSPTGEELSWSWGKKKINDEFYNLIVIDIKDGKNIYKKQRPALGELPTKKPKSIWYKPEYSTSTATTELKNLLGAKLFEGPKPVPLITDLVKIGTKKDSLVLDFFAGSGTTAEAVAYLNEKDSGCRNFICIQKDEVINKTKNAYSLGYRSIFEITKKRIQEVFKKSTTTSDNAAKIGFKVIHTIDDFRAKVESELTLTNHTFFDDAVLTPEQYDALLTTWCVYDGSLLTTPIEDVDLSGYTAHFCNGRLYLIAPNFTSEALKALLQKLDSDEDFAPNKVVFYGCNFESAKQRELNEALKSYANKKSIELDLVVRN
notes: EcoP1I DNA methyltransferase, product of the mod gene of the EcoP1I Type III restriction-modification system of bacteriophage (prophage) P1; 1948 bp gene amplified with primers from the 5' and 3' ends of the open reading frame, cloned in the BamHI site of pET15b (construct pSN2); calculated mass ~75 kDa; No removal of the His6 tag is described. pET15b adds linker residues between the tag and the …
One may read the stoichiometry N as a count of units in the complex or per binding partner. As to B2, in series [1], the “stoichiometry N” value amounted to 2.
